Series [1] has as its target HsLARP6(84-183) La domain (Homo sapiens, UniProt Q9BRS8). Put plainly: analytical SEC.
Series [2] has as its target HsLARP6(73-183) La domain (Homo sapiens, UniProt Q9BRS8). Put plainly: analytical SEC.
Series [3] concerns the target Cy5-HsLARP6(73-183)G74C La domain (Homo sapiens, UniProt Q9BRS8, G74C). Put plainly: MST.

B1: 5'SL RNA (a2(I)), 48 nt (structured_RNA)
RNA: GGCACAAGGAGUCUGCAUGUCUAAGUGCUAGACAUGCUCAGCUUUGUG
On to B1, for which the binding result in series [1] and in series [2] was “binds” throughout. In series [3], this molecule came in with a Kd of 4.87 ± 0.15 nM.

The Kd is the equilibrium constant for the complex coming apart.

The values above are taken from PMC11966256.
